The target of this assay is iBoNT/A (protease inactive version of BoNT/A) (Clostridium botulinum). The assay can be described thus: SPR (BIAcore), […] ([…] to […]). A general note: In SPR one partner is held on a chip, and binding of the other changes the refractive index at the surface.

From patent US20090263836A1 come the findings set out here.

By Kd is commonly meant a measure of binding affinity in units of concentration. A low value points to higher affinity.

“SV2C529-566 (luminal part of SV2C) (peptide)” yielded a Kd of 5000 nM.

Take “sFGFR3 (loop 2 and 3 of the extra cellular domain of FGFR3) (receptor)”: the dissociation constant (Kd) was 10 nM.
